This series concerns the molecule itself. The series is described as follows: cryo-EM structure; 1 uM P. furiosus 30S subunits with 5 uM aRDF (1:5) in 20 mM HEPES-KOH pH 7.0, 12 mM MgCl2, 100 mM NH4Cl, 0.5 mM EDTA; 15 min at 70 °C before freezing; Structures I and II at 3.2 Å.

B1: archaeal ribosome dimerization factor (aRDF) (natural protein, Pyrococcus furiosus)
chain: MKVVGIKGSVSYLQALKYLKTKKVTKRLKEIEKLVDTLITLAPYAPEGSKIETIRKNYAKISFNKIKTVSRSKIGSPRIKSIMLLLWNFGLLDVKIIENSWYVRKTKLASLLEENFKDLSPSEKLKVYLLGGLLVDTPARFVYRCTLNGVEDYKGVKKAILGYLSDQRSNSLIIGLSNMLESIKFIEEAQAYSGKKEYIGLVDVAFYGLSGLYLDVKRESGKLTVKPNFRELRALYEIDKSVATGSDYGLSISKEILENLANTKRRKTIFSEEVQELLVNVIKENAISISQDLQNMYGII
notes: aRDF (PF0560 protein) of Pyrococcus furiosus; modelled in PDB 9FNY and 9FNZ with poorly defined loops omitted; Forms homodimers (monomers A and B); two homodimers bridge two 30S subunits in the cryo-EM structures; also called PF0560; PF0560 protein; source: E. coli BL21(DE3), purified (heat treatment, Ni-NTA, heparin)
One may read the stoichiometry N as a count of units in the complex or per binding partner. Turning to B1, the “stoichiometry N” value was 2.

Source of the values: PMC11724365, “Novel archaeal ribosome dimerization factor facilitating unique 30S–30S dimerization” (Nucleic Acids Research, 2025).
